Measurements from US20150218281A1 (Ablynx, published 2015).

Key:
[1] = molecular target: T1, recombinant human OX40L (extracellular domain, R&D Systems) (human, UniProt P23510 51-183); experiment: cell-based or functional assay
T1 sequence: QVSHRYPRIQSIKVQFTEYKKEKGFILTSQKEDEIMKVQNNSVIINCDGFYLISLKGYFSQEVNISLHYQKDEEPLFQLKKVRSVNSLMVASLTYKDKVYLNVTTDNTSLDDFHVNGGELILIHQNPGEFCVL

[2] = molecular target: T2, biotinylated hOX40L (R&D Systems, biotinylated in house) (human, UniProt P23510 51-183, biotinylated with Sulfo-NHS-LC-Biotin, sites not stated); experiment: hOX40L/hOX40 AlphaScreen, assay 1, native
T2 construct: same bought protein as m10, biotinylated; also called biotinylated OX40L
T2 sequence: T1 sequence
Method: Next, streptavidin donor beads were added and incubated for an additional 1 hour. Fluorescence was measured by reading plates on the EnVision Multilabel Plate Reader using an excitation wavelength of 680 nm and an emission wavelength of 520 nm. […]

[3] = molecular target: T2, biotinylated hOX40L (R&D Systems, …); experiment: hOX40L/hOX40 AlphaScreen, assay 2, native
Method: (§1) Next, streptavidin donor beads were added and incubated for an additional 1 hour. Fluorescence was measured by reading plates on the EnVision Multilabel Plate Reader using an excitation wavelength of 680 nm and an emission wavelength of 520 nm.
(§2) In the TSA assay, Nanobodies were diluted to a concentration of 0.2 mg/ml and melting temperature (Tm) was determined at different pH by stepwise increase in temperature in presence of Sypro Orange, a dye that binds to […] residues that become exposed upon unfolding of the protein, using the Lightcycler (Roche) for detection. […] In SEC analysis, the Nanobodies were analyzed on a Phenomenex matrix to allow detection of multimers, aggregates or ‘stickyness’.

[4] = molecular target: T2, biotinylated hOX40L (R&D Systems, …); experiment: hOX40L/hOX40 AlphaScreen, assay 3, native
Method: as §1, §2

[5] = molecular target: T2, biotinylated hOX40L (R&D Systems, …); experiment: hOX40L/hOX40 AlphaScreen, assay 2, heated at Tm+10 C
Method: as §1, §2

[6] = molecular target: T2, biotinylated hOX40L (R&D Systems, …); experiment: hOX40L/hOX40 AlphaScreen, assay 3, heated at Tm+10 C
Method: as §1, §2

IC50, T cell assay with rec. hOX40L [1]: 9 nM
IC50 [2]: 0.046 nM
IC50 [3]: 0.092 nM
IC50 [4]: 0.102 nM
IC50 [5]: 0.084 nM
IC50 [6]: 0.082 nM
B1: OX40L040 (VHH, not shown: small tags and cut ends)
VHH: DVQLVESGGGLVQPGGSLRLSCAASRSIGRLDRMGWYRHRTGEPRELVATITGGSSINYGDFVKGRFTISRDNSKNTVYLQMNSLRPEDTAVYYCNFNKYVTSRDTWGQGTLVTVSS
